# ± gives the standard deviation of the averaged measurements.
# B1: library; a variant is named by its letters at N, in order (parent)
# chain: GCUGUCACCGGUGUAUUACCCUAGUGGUCGACCGGUCUGAUGAGUCUNNNNNNAGACGAAACAGC
# Assays:
# hypoxanthine [1] = variants of: B1; assay: normalized RNA/DNA level with ligand (relative to sTRSVctl = 100) (log10 (% of sTRSVctl)); ligand: hypoxanthine (xanthine aptamer); higher = less ribozyme self-cleavage, higher mRNA level; conditions: ligand concentration (+) RNA-Seq: 5 mM, HEK293T, reporter: mCherry (pCS4076), ligand present: yes
# Outline: (§1)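 Ribozyme switch library plasmids with mCherry reporters (eGFP in certain ligand experiments) went into HEK293T cells at 4 µg per 6-well well. Where ligand was used, it was applied 1 h before transfection, and total RNA was extracted with EDTA 72 h later for reverse transcription, amplification, barcoding and sequencing. RNA level is the RNA-to-DNA read ratio normalized to a spiked-in non-cleaving sequence or to the leading sequences, then scaled and log-transformed. Scaling was ×100 with log10, the leading set comprised 25 sequences, and the cutoff was ≥100 DNA reads.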
# hypoxanthine [2] = variants of: B1; assay: normalized RNA/DNA level without ligand (relative to sTRSVctl = 100) (log10 (% of sTRSVctl)); ligand: hypoxanthine (xanthine aptamer); higher = less ribozyme self-cleavage, higher mRNA level; conditions: HEK293T, reporter: mCherry (pCS4076), ligand present: no
# Outline: as §1
Variant,normalized RNA/DNA level with ligand (log10) (hypoxanthine [1]),normalized RNA/DNA level without ligand (log10) (hypoxanthine [2])
GCUGUCACCGGUGUAUUACCCUAGUGGUCGACCGGUCUGAUGAGUCUGCCUCCAGACGAAACAGC [GCCUCC],1.95 ± 0.043,1.95 ± 0.023
GCUGUCACCGGUGUAUUACCCUAGUGGUCGACCGGUCUGAUGAGUCUGCCUCUAGACGAAACAGC [GCCUCU],2.011 ± 0.019,1.96 ± 0.02
GCUGUCACCGGUGUAUUACCCUAGUGGUCGACCGGUCUGAUGAGUCUGCCUCAAGACGAAACAGC [GCCUCA],1.98 ± 0.07,1.9 ± 0.024
GCUGUCACCGGUGUAUUACCCUAGUGGUCGACCGGUCUGAUGAGUCUCCCUACAGACGAAACAGC [CCCUAC],1.973 ± 0.018,1.9 ± 0.11
GCUGUCACCGGUGUAUUACCCUAGUGGUCGACCGGUCUGAUGAGUCUCCCUAUAGACGAAACAGC [CCCUAU],1.971 ± 0.0087,1.94 ± 0.025
GCUGUCACCGGUGUAUUACCCUAGUGGUCGACCGGUCUGAUGAGUCUCCCUAGAGACGAAACAGC [CCCUAG],1.89 ± 0.025,1.77 ± 0.12
GCUGUCACCGGUGUAUUACCCUAGUGGUCGACCGGUCUGAUGAGUCUCCCGUAAGACGAAACAGC [CCCGUA],1.92 ± 0.015,1.85 ± 0.035
GCUGUCACCGGUGUAUUACCCUAGUGGUCGACCGGUCUGAUGAGUCUCCCGUCAGACGAAACAGC [CCCGUC],2.027 ± 0.018,2.021 ± 0.019
GCUGUCACCGGUGUAUUACCCUAGUGGUCGACCGGUCUGAUGAGUCUCCCGUGAGACGAAACAGC [CCCGUG],1.97 ± 0.026,1.812 ± 0.0064
GCUGUCACCGGUGUAUUACCCUAGUGGUCGACCGGUCUGAUGAGUCUCCCGUUAGACGAAACAGC [CCCGUU],1.93 ± 0.056,1.9 ± 0.024
GCUGUCACCGGUGUAUUACCCUAGUGGUCGACCGGUCUGAUGAGUCUUCCUCGAGACGAAACAGC [UCCUCG],1.97 ± 0.065,1.68 ± 0.058
GCUGUCACCGGUGUAUUACCCUAGUGGUCGACCGGUCUGAUGAGUCUUCCUCUAGACGAAACAGC [UCCUCU],1.99 ± 0.053,1.98 ± 0.029
GCUGUCACCGGUGUAUUACCCUAGUGGUCGACCGGUCUGAUGAGUCUUCCUCAAGACGAAACAGC [UCCUCA],2 ± 0.033,1.88 ± 0.048
GCUGUCACCGGUGUAUUACCCUAGUGGUCGACCGGUCUGAUGAGUCUUCCUCCAGACGAAACAGC [UCCUCC],1.99 ± 0.055,1.78 ± 0.039
GCUGUCACCGGUGUAUUACCCUAGUGGUCGACCGGUCUGAUGAGUCUCCCGGUAGACGAAACAGC [CCCGGU],2 ± 0.069,1.92 ± 0.071
GCUGUCACCGGUGUAUUACCCUAGUGGUCGACCGGUCUGAUGAGUCUGCCUACAGACGAAACAGC [GCCUAC],1.954 ± 0.0075,1.757 ± 0.0057
GCUGUCACCGGUGUAUUACCCUAGUGGUCGACCGGUCUGAUGAGUCUGCCUAUAGACGAAACAGC [GCCUAU],1.944 ± 0.013,1.852 ± 0.011
GCUGUCACCGGUGUAUUACCCUAGUGGUCGACCGGUCUGAUGAGUCUGCCGUAAGACGAAACAGC [GCCGUA],1.965 ± 0.011,1.84 ± 0.061
GCUGUCACCGGUGUAUUACCCUAGUGGUCGACCGGUCUGAUGAGUCUGCCGUGAGACGAAACAGC [GCCGUG],1.91 ± 0.025,1.48 ± 0.036
GCUGUCACCGGUGUAUUACCCUAGUGGUCGACCGGUCUGAUGAGUCUGCCGUCAGACGAAACAGC [GCCGUC],1.94 ± 0.096,1.91 ± 0.074
GCUGUCACCGGUGUAUUACCCUAGUGGUCGACCGGUCUGAUGAGUCUCCCUCAAGACGAAACAGC [CCCUCA],1.978 ± 0.0074,1.9723 ± 0.00098
